The values below come from patent publication US20020037996A1 (INSTITUTE OF PHYSICAL AND CHEMICAL RESEARCH, published 2002).

In this test the target is T1, nitrile hydratase (NHase) β subunit derived from Rhodococcus sp. N-771, in the nitrosylated (inactive) enzyme (Rhodococcus sp. N-771, UniProt P13449 1-212).
T1 sequence (looked up): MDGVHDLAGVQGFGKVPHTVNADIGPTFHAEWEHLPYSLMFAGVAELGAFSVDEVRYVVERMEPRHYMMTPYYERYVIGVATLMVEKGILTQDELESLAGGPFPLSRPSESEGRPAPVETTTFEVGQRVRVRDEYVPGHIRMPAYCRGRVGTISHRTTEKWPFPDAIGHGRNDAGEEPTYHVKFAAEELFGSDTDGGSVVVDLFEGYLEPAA
The test is described as follows: X-ray crystallography of nitrosylated NHase, 1.7 Å; hetero-tetramer (αβ)2 in the crystal, dimer-tetramer equilibrium in solution by sedimentation equilibrium and dynamic light scattering. The source says: Two αβ hetero-dimers existed in an asymmetric unit of the crystal. […] The structural model was crystallographically refined at 1.7 Å resolution (R-factor 0.179, R-free0.228). […] The non-heme iron center was located at the interface between the two subunits in the hetero-dimer.

B1: nitrile hydratase (NHase) α subunit derived from Rhodococcus sp. N-771, in the nitrosylated (inactive) enzyme (enzyme, UniProt P13448 2-207, looked up)
chain: SVTIDHTTENAAPAQAPVSDRAWALFRALDGKGLVPDGYVEGWKKTFEEDFSPRRGAELVARAWTDPEFRQLLLTDGTAAVAQYGYLGPQGEYIVAVEDTPTLKNVIVCSLCSCTAWPILGLPPTWYKSFEYRARVVREPRKVLSEMGTEIASDIEIRVYDTTAETRYMVLPQRPAGTEGWSQEQLQEIVTKDCLIGVAIPQVPTV
modifications: cysteinesulfinic acid (Cys-SO2H) at 112; cysteinesulfenic acid (Cys-SOH) at 114; non-heme iron with bound NO coordinated by Cys109, Cys112, Ser113, Cys114
On to B1, for which the binding result is “binds”.
